Data published in US12194082B2, “Compositions and methods for treatment of homocystinuria” (THE REGENTS OF THE UNIVERSITY OF COLORADO, priority 2016, dated 2025).
Values joined by “and” are separate entries in the source; they are usually repeats but may differ in a detail not shown here. Equal entries are not always repeated.

Tests used:
tHcy, cystathionine = experiment: Betaine, PEGC15S and combination treatment: transsulfuration metabolites; assay type: in vivo, HO mice
Method: (§1) Plasma metabolites homocysteine, cystathionine and cysteine were determined by stable-isotope-dilution liquid chromatography mass spectrometry as previously described in (Allen et al., 1993, Metabolism, 42: 1448-1460). Measurements of total non-protein bound homocysteine and other aminothiols as well as of amino acids in tissue were performed as described in (Maclean et al., 2010b. Mol. Genet. Metab. 101, 153-162). Metabolites were determined by stable-isotope-dilution liquid chromatography mass spectrometry.
The betaine and betaine+PEGC15S groups were treated with 2% betaine in the drinking water throughout the 18 days of the experiment, and the latter group was injected with 7.5 mg/kg PEGC15S on days 14 and 15. The PEGC15S single treatment group was maintained on regular water and injected on days 14 and 15 as well. […] The betaine single treatment group maintained these levels of tHcy to day 18. […] Thus, the combination of PEGC15S with betaine allows for maintaining lower tHcy levels for an extended period of time.

[1] = tested on: homocysteine, cystathionine and cysteine; experiment: Repeated administration of htCBS or PEGhtCBS: plasma and tissue metabolites; assay type: in vivo, HO mice; details: 5 mg/kg, 5 consecutive days on weeks 1 and 3
Method: as §1
This lack of metabolic modulation by non-PEGylated htCBS further confirms the necessity to modify htCBS by covalent attachment of polyethylene glycol molecules.
The long term effect of PEGhtCBS administration was monitored using HO mice. The PEGhtCBS enzyme was administered to 8 HO mice at a dose of 7.5 mg/kg, twice a week (Monday and Thursday) for the first two weeks, and then three times a week (Monday, Wednesday and Friday) for 6 weeks. Blood samples were collected 24 hours (Tuesday) and 72 hours (Monday) post injection (FIG. 4A-4C). […] Cystathionine and cysteine levels were positively influenced as well. […] In addition to analysis of plasma metabolites levels, liver, kidney and brain tissue samples from the injected mice were analyzed as well to determine the levels of non-protein bound homocysteine (free and disulfide-linked forms).

[2] = CBS enzyme activity assay, specific activity of pure enzyme; assay type: biochemical; details: PEGylated vs non-PEGylated htCBS
Method: CBS activity was determined by a radioisotope assay with C^14-labeled serine as a substrate. Ten μl (total 490 ng) of pure htCBS in dilution buffer (0.1 M Tris-HCl pH=8.6, 1 mM DTT, 10 μM PLP, 0.5 mg/ml BSA) or 10 μl of plasma were added to 85 μl of reaction mixture containing 0.1 M Tris-HCl pH=8.6, 10 mM L-serine, 0.5 mM PLP, 0.5 mg/ml BSA and 0.3 μCi (for pure enzyme) or 0.45 μCi (for plasma) of L-[C^14(U)]-Serine. Samples were incubated for 5 min at 37° C. and reaction was initiated by addition of 5 μl of 0.2 M Hcy (10 mM final concentration). Following 30 min of incubation at 37° C., a 20 μl aliquot of the assay mixture was applied onto a grade 3 CHR Whatman (NJ, USA) paper. Assay initiation and sampling of the resulting mixture were staggered so that each reaction time was 30 minutes. Descending paper chromatography was used to isolate the radioactive product (Cth) from a labeled substrate (Ser). The C^14-cystathionine formed in the reaction was separated from C^14-serine by an overnight descending paper chromatography in 2-propanol/formic acid/H2O (75:5.7:18.9 v/v). Radioactivity in the area of the marker cystathionine (detected by staining the marker lane with ninhydrin) was determined by cutting the chromatogram into strips that were submerged in 5 ml of Opti-fluor scintillation cocktail (PerkinElmer, MA, USA) and counted in a Beckman LS-3801 scintillation counter. An enzyme-free sample was used as a blank to monitor the background radioactivity that was then subtracted from each sample. For pure enzyme, specific activity values are expressed as enzyme units (the amount of enzyme that produces 1 μmol of cystathionine/hour) per mg of CBS, and for plasma samples as units per μl plasma.

[3] = htCBS activity during in vitro incubation in mouse plasma at 37° C.; assay type: in vitro ADME, wild type or HO mice
Method: The rapid decline in htCBS activity in vivo may be attributed to a facilitated clearance from circulation and may also be attributed to the loss of enzymatic activity of htCBS once introduced to the environment in circulation. To test the latter, htCBS was incubated in vitro in mouse plasma of wild type or HO mice at 37° C. for up to 96 hours, with activity measured every 24 hours. […] A modest 25% loss of activity was recorded after 96 hours of incubation.

[4] = Pharmacokinetics of htCBS after a single dose (plasma CBS activity); assay type: in vivo, C57BL/6J mice; details: for observed peak plasma level: first 4 hours
Method: The pharmacokinetic properties of a pharmacologically active substance that is administered to circulation is greatly affected by natural mechanisms of ADME. Rapid clearance of the injected molecule may greatly impact treatment efficacy and thus longer circulating half-lives are desired, which may translate into less frequent administrations or smaller doses that in turn minimize the side effects. To determine the pharmacokinetics of htCBS in plasma circulation, a single dose of 5 mg/kg was injected via subcutaneous (SC), intravenous (IV) or intraperitoneal (IP) routes to C57BL/6J mice.

## C[N+](C)(C)CC(=O)O [betaine, N,N,N-trimethylglycine]
tHcy, cystathionine; 14 days of 2% betaine in drinking water
  decrease in tHcy: 29% and 32%
tHcy, cystathionine; throughout the 18 days
  cystathionine change: did not result in an increase

## htCBS: truncated recombinant human CBS (SEQ ID NO: 3) where the C-terminal regulatory region has been removed
[1]
  serum homocysteine levels: no change
[2]
  Specific Activity: 1193
[3]; after 96 hours
  loss of activity in mouse plasma: 25%
[3]; up to 72 hours
  loss of activity in mouse plasma: no significant loss of activity
[4]; 5 mg/kg IP
  AUC(0-t) (obs area): 932.4 mU-hr/μL
  Bioavailability: 92%
  E Half-life: 4.3 h
  MRT (area): 7.9 h
  cmax (obs): 75.9 Mu/μL
  observed peak plasma level: ≤ 76 mU/μL
[4]; 5 mg/kg IV
  AUC(0-t) (obs area): 1011 mU-hr/μL
  E Half-life: 2.7 h
  MRT (area): 4.9 h
  observed peak plasma level: up to 123 mU/μL
[4]; 5 mg/kg SC
  AUC(0-t) (obs area): 500.9 mU-hr/μL
  Bioavailability: 50%
  E Half-life: 6.1 h
  MRT (area): 9.5 h
  cmax (obs): 34.5 Mu/μL
